Results from the nanobody polyreactivity screen of Harvey et al. (2022).

Assay: yeast display, Sf9 membrane polyspecificity reagent, FACS + sequencing; frameworks hold sequencing errors
Outline: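 Galactose-induced (36–48 hours) yeast carrying a synthetic nanobody display library were exposed to 10% biotinylated, detergent-solubilized Sf9 membrane reagent at 4 °C for 1 hour. FACS followed streptavidin microbead enrichment, using low and high (top ~1%) gates for expression (anti-HA) and reagent binding (streptavidin). Colony PCR, MiSeq 2 × 250 sequencing and CDR-length filtering followed. Labels for polyreactivity reflect the gate of origin.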

QVQLGESGGGLVQAGGSLRLSCAASGRIYAAYAMGWSRQAPGKERELVAAISGSGGSTSYADSVKGRFTISRDNAKNTVYLQMNSLKPEYTAVYYCAADYSYLAEFDYWGQGTQVTVSS
polyreactivity (PSR sort gate): low polyreactivity

QVQLGESGGGLVQAGGSLRLSCAASGRNFENNAMGWYRQAPGKERELVASIRGGGSTNYADSVKGRFTISRDNAKNTVYVQMNSLKPEDTAVYYCNADYWWSYVRFDYWGQGTQVTVSS
polyreactivity (PSR sort gate): low polyreactivity

QVQLGESGGGLVQAGGSLRLSCAASGRTFDYYAMGWYRQAPGKEWQLVAAISGSGGTTYYADSVKGRFTISRENAKNTVYLQMNSLKAEDTAVYNCDTVRSRLFGQYYYWGQCTQVTVSS
polyreactivity (PSR sort gate): high polyreactivity

QVQLGESGGGLVQAGGSLRLSCAASGRTFPYNAMGWYRQAPGKERELVAAISSGGSTNYADSVKGRFTISRDNAKNTVYLQMNSLKQEDTAVYYCAVTGWPRYTWYSYGYWGQGTQVTLSS
polyreactivity (PSR sort gate): low polyreactivity

QVQLGESGGGLVQAGGSLRLSCAASGSIFRYYAMGLYRQAPGKERELVAAISGSGGITRYADSVKGRFTISRDNAKNTVYLLMNSLKPEDTAVYYCATRPGTRPAYDYWGQGTQVTVSS
polyreactivity (PSR sort gate): high polyreactivity

QVQLGESGGGLVQAGGSLRLSCAASGSIFSRYTMGWYREAPGKERELVAAITSSGGRTYYADSVKGRFTISRDNAKNTVYLQMNRLKAEDTAVYYCAARYFSSFPLYYYWGQGTQVTVSS
polyreactivity (PSR sort gate): high polyreactivity

QVQLGESGGGLVQAGGSLRLSCAASGSIFWLYAMGWYRQAPGKERELVAAIDSGDSRKYADSVKGRFTISRDNAKNTVYLQMNSLTPEDTAVYYCNASRRYHVRAPYDYWGQGTLVTVSS
polyreactivity (PSR sort gate): low polyreactivity

QVQLGESGGGLVQAGGSLRLSCAASGSILRTYTMGWYRPAPGKERELVAAISSSGGRTYYADSVKGRFTISRDNAKNTVYLQMNSLKPEDTAVYYCNAGGYRYRSYDYWGQGTQVTVSS
polyreactivity (PSR sort gate): high polyreactivity

QVQLGESGGGLVQAGGSLRLSCAASGSSFWVNAMGWYRQAPGKETELVAAISRGSTYYADSVKGRFTISRDNAKNTVYLQRNSLKPEDTAVYYCNARYLYSHSRYARYHSWGQGTQVTVSS
polyreactivity (PSR sort gate): high polyreactivity

QVQLGESGGGLVQAGGSLRLSCAASGSTFARYAMGWYRQAPGKERELVAVIRSGGSRNYADSVKGRFTISRDNAKNTVYLQMNSLKPEDTAGAADQWTIHRWATYGYWGQGTQVTVSS
polyreactivity (PSR sort gate): low polyreactivity

QVQLGESGGGLVQAGGSLRLSCAASGSTFKLYAMGWYRQAPGKERELVAAIRGSGGRTYYADSVKGRFTISRDNAKNTVYLQMNSLKPEDTAVYYCAAAYIGVWKYDSWGQGTQVTVSS
polyreactivity (PSR sort gate): high polyreactivity

QVQLGESGGGLVQAGGSLRLSCAASGSTFTSYAMGGSRQAPGKERELVAAITHRGSTNYADSVKGRFTISRDNAKYTVDLQMNSLKPEDTAVYYCNARYATSVLYDYWRQGTQVTVSS
polyreactivity (PSR sort gate): high polyreactivity

QVQLGESGGGLVQAGGSLRLSCAASGSTFVDNTMGWYRQAPGKERELVAAITRSGGSTYYADSVKGRFTISRDNAKNTVYLQMNSLNPEDTAVYYCATYPYSPYFYVYVEPYVYWGQGTQVTVSS
polyreactivity (PSR sort gate): low polyreactivity

QVQLGESGGGLVQAGGSLRLSCAASGSTFYRYAMGWYRQAPGKERELVAAITRGGGNTYYADSVKGRFTISRDNAKNTVYLQMNSLKPEDTAVYYCNTDPTLRSRVGIWGFDYWGQGTQVTVSS
polyreactivity (PSR sort gate): high polyreactivity

QVQLGESGGGLVQAGGSLRLSCAASGYIFRVYAMGWYIQARGKERDFVAAITRGGRTNYADSVKGRFTISRDNAKNTVYLQMNSLKQEDTAVYYCAASFSAIRGGVRVTIDYYWGQGTQVTVSS
polyreactivity (PSR sort gate): high polyreactivity

QVQLGESGGGLVQAGGSLRLSCDASGTSNPYNAMGWYRQAPGKERELVATISTNDGSTYYADSVKGRFTISRDNEKNTVYLQMNSLKPDDTAVYYCASRGFARYWGQRTQVTVSS
polyreactivity (PSR sort gate): low polyreactivity

QVQLGESGGGLVQAGGTLRLSCAAYGFIFGIYDMGSYRQAPGKERELVAAITWDGDTTYYADSVKGRFTISRDNAKNTVYLQMNSLKPEDTAVFYCAVDDSRAYPRPYHWVEYYYWGQGTQVTVSS
polyreactivity (PSR sort gate): low polyreactivity

QVQLGESWACIVQAGGSLRLSCAASGIISYLYAMGLYRHAPGKERELVAVIRTSDAITYYADSVKGRFTISRDTAKNTVYLQMNSLKPEDTAFYYCGGRPRYYLYGYDYWGQGTQVTVSS
polyreactivity (PSR sort gate): high polyreactivity

QVQLGHSGGGLVQAGGSLRLTCAPSGSIFGYKAMGWYRQAPGKERELVAAISSTGGSTYYADSVKGRFTISRDNAKNTVYLQMNSLKPEDTAVYYCAKQVADRYVYWGQGTQVTVSS
polyreactivity (PSR sort gate): low polyreactivity

QVQLHERGDGLVQAVGSLRLSCAASGYISGYYYMGWYRQATGKERELVAGIDALGSSTNYADCVKGRFTISRDNAKNTVYLQMNSLKPEDTAVYYCAARPDGDRLFSYWGQGTQVTVSS
polyreactivity (PSR sort gate): low polyreactivity

QVQLHESGGGLVQAGGSLRLRCAASGTISYAGPMGWYRQAPGKEREFGAGIGVGSNTNYADSVKGRYTIIRDNAKNTVFLQMNSLKPEDTAVYYCAVGGYAPLGRPYWGQGTQVTVSS
polyreactivity (PSR sort gate): low polyreactivity

QVQLHESGGGLVQAGGSLRLSCAASGTISQEDWMGWYRKAPRKEREFVAAIGLGSNTNYADSLKGRFTISRDNANNTVYLQMNSLKPEDTAVYYCAVSVWQYSDHVYRGQGTQVTVSS
polyreactivity (PSR sort gate): low polyreactivity

QVQLHESGGGLVQAGGSLRLSCAASGTISYAGPMGWYRQAPGKEREFVAGIGVGSNTNYADSVKGRYTIIRDNAKNTVYLQMTSLKPEETAVYYCAVGGYAPLGPPYWGQGTQVTVSS
polyreactivity (PSR sort gate): low polyreactivity

QVQLHESGGGLVQAGGSMRLSCEASGTISYAGTMGWYRQAPGKEREFVAGIGLGSNTNYADSVKGRYTIIRDNEKKSVYLQMNSLKPEDTSLYYFAVGVYDPLGRPYWCQGTQVTVSS
polyreactivity (PSR sort gate): low polyreactivity

QVQLHESGRGLVQAGGSLRLSCAATATISYAGPMGWYRQAPGKEREFVAGIGVGSNTNYADSVKGRYTIIRDNAKNTVYLQMNSLKPEDTAVYSCAVGGYAPLGRPYWGQGTQVTVSS
polyreactivity (PSR sort gate): low polyreactivity

QVQLIESGGGLVQAGGSLRLSCAASGRTFKRYAMGWYRQAPGKERELVARITYSGARTYYADSVKGRFTISRDNAKNTVYLQMNSLKPEDTAVYYCAAQQYWTSQYFRSATFDYWGQGTQVTVSS
polyreactivity (PSR sort gate): high polyreactivity

QVQLIESGGGLVQAGGSLRLSCAASGSIFAANAMGWYRQAPGKEREFVASISYTGASTYADSVKGRFTISRDNAKNTVYFQMNSLKPEDTAVYYCAKDGYWTGLDPYYYWGQGTQVTVSS
polyreactivity (PSR sort gate): low polyreactivity

QVQLIESGGGLVQAGGSLRLSCAASGSIFYNNTMGWYRQAPGKERELVATIRTSGGSTYADSVKGRYTISRDNAKNTLYLQMNSLKPEDTAVYYCAVRRYRSSSYYYWGQGTQVTVSS
polyreactivity (PSR sort gate): high polyreactivity

QVQLIESGGGLVQAGGSLRLSCAASGSTFYGNAMGWYRQAPGKEREFVAAITGSGDSTDYADSVKGRFTISRDNAKNTVYLQMNSLIPEDTAVYYCNAVGYTPSKPSKFDYWGQGTQVTVSS
polyreactivity (PSR sort gate): low polyreactivity

QVQLKESGVGLVQAGGSLRLSCAASGTIYWLWSMGWYCQAPGKERELVASISSGGTTYHADSVKGRFTISRDNAKNTVYLQMNSLNPEDTAVYYSAAFYVATAKLGYWGQGSQVTVSS
polyreactivity (PSR sort gate): low polyreactivity

QVQLLDSGGGLVKAGGILRLSCAASGRTFGRYAMGCYRQSPGKERELVATISSRGGNAYYAESVKGRFTISRDNAKNTVYFQMNSLKPEYTGVYYCEAQTYKCYDWRQGTQVTVSS
polyreactivity (PSR sort gate): high polyreactivity

QVQLLESCGGLDQAGGSLRLSCAASGSTFGTNAMGWYRKAPGKERELVAAITSSGGSTNYADSVKWRFTISLDNANNSVYFQMNCLKPEDTAVYYCNDVSYSTTYGGDSWGQGTQVTVSS
polyreactivity (PSR sort gate): low polyreactivity
